# Patent US20170258835A1 (University of Pennsylvania, published 2017)
# B1: C2177.CD19 bi-specific antibody (bispecific antibody)
# chain: DIVLTQSPASLAVSLGQRATISCKASQSVDYAGDSYMNWYQQKPGQPPKLLIYAASNLESGIPARFSGSGSGTDFTLNIHPVEEEDAATYYCQQSNEDPYTFGGGTKLEIKGGGGSGGGGSGGGGSQVQLQQSGPELVKPGASVKISCKASGYAFSSSWMNWVKQRPGKGLEWIGRIYPGDGDTNYNGKFKGKATLTADKSSSTAYMQLSSLTSEDSAVYFCARSDYYGDYGFAYWGQGTLVTVSAGGGGSDIQMTQTTSSLSASLGDRVTISCRASQDISKYLNWYQQKPDGTVKLLIYHTSRLHSGVPSRFSGSGSGTDYSLTISNLEQEDIATYFCQQGNTLPYTFGGGTKLEITGGGGSGGGGSGGGGSEVKLQESGPGLVAPSQSLSVTCTVSGVSLPDYGVSWIRQPPRKGLEWLGVIWGSETTYYNSALKSRLTIIKDNSKSQVFLKMNSLQTDDTAIYYCAKHYYYGGSYAMDYWGQGTSVTVSS
# notes: anti-CD27 (C2177) x anti-CD19; also called aCD27-aCD19
# B2: M709.CD19 bi-specific antibody (bispecific antibody)
# chain: DIVMTQSPDSLAVSLGERATINCKASQSVDYAGESFMNWYQQKPGQPPKLLIYAASNLESGVPDRFSGSGSGTDFTLTISSLQAEDVAVYYCQQSNEDPYTFGQGTKLEIKGGGGSGGGGSGGGGSEVQLVQSGAEVKKPGESLKISCKGSGYAFSSSWMNWVRQMPGKGLEWMGRIYAGDADTAYSPSFQGQVTISADKSISTAYLQWSSLKASDTAMYYCARSDYYGDYGFAYWGQGTLVTVSSGGGGSDIQMTQTTSSLSASLGDRVTISCRASQDISKYLNWYQQKPDGTVKLLIYHTSRLHSGVPSRFSGSGSGTDYSLTISNLEQEDIATYFCQQGNTLPYTFGGGTKLEITGGGGSGGGGSGGGGSEVKLQESGPGLVAPSQSLSVTCTVSGVSLPDYGVSWIRQPPRKGLEWLGVIWGSETTYYNSALKSRLTIIKDNSKSQVFLKMNSLQTDDTAIYYCAKHYYYGGSYAMDYWGQGTSVTVSS
# notes: anti-CD27 (M709) x anti-CD19; also called aCD27-aCD19
# B3: M708.CD19 bi-specific antibody (bispecific antibody)
# chain: DIQMTQSPSSLSASVGDRVTITCRASKSVSTSGYSFMHWYQQKPGKAPKLLIYVGSRLDYGVPSRFSGSGSGTDFTLTISSLQPEDFATYYCQHSRELPWTFGQGTKVEIKGGGGSGGGGSGGGGSEVQLLESGGGLVQPGGSLRLSCAASGFTFSSYTMSWVRQAPGKGLEWVSVIDHGGGSTHYPDSVKGRFTISRDNSKNTLYLQMNSLRAEDTAVYYCARHRGNPFDYWGQGTLVTVSSGGGGSDIQMTQTTSSLSASLGDRVTISCRASQDISKYLNWYQQKPDGTVKLLIYHTSRLHSGVPSRFSGSGSGTDYSLTISNLEQEDIATYFCQQGNTLPYTFGGGTKLEITGGGGSGGGGSGGGGSEVKLQESGPGLVAPSQSLSVTCTVSGVSLPDYGVSWIRQPPRKGLEWLGVIWGSETTYYNSALKSRLTIIKDNSKSQVFLKMNSLQTDDTAIYYCAKHYYYGGSYAMDYWGQGTSVTVSS
# notes: anti-CD27 (M708) x anti-CD19; also called aCD27-aCD19
# Biological target: T1, CD27-Z CLEAR (UniProt P26842 20-260; P20963 52-163)
# T1 construct: also called CD27 CLEAR
# T1 sequence (P26842 other isoform, or with tags, fused parts or gaps): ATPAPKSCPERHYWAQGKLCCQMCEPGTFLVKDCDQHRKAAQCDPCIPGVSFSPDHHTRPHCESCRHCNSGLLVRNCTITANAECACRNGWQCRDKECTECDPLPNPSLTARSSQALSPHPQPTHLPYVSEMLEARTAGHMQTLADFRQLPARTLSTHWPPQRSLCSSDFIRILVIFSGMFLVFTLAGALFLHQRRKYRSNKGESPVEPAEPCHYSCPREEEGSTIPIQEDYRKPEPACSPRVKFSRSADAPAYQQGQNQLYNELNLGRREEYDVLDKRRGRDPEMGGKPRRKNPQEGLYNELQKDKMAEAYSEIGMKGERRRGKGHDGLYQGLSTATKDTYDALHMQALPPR
# Assay: flow cytometry, T cells co-electroporated with CD27-Z RNA and bi-specific antibody RNA, stained with anti-mouse IgG Fab (streptavidin APC) and anti-CD27 FITC; controls: CD27Z alone Q2 2.52 and Q3 9.39, NO EP Q2 0.089 and Q3 1.92
percent of cells CD27+ mIgG Fab+ (Q2),percent of cells CD27- mIgG Fab+ (Q3),Binder
13.8,84.2,B1
0.35,52.2,B2
7.58,18.8,B3
